Reference: PMC4174979 (DNA repair, 2014)

B1: Sgs1_(157–257) (domain or fragment, S. cerevisiae, UniProt P35187 157-257, looked up)
chain: NKSVIDNSSIGKQLENDIKLEVIRLQGSLIMALKEQSKLLLQKCSIIESTSLSEDAKRLQLSRDIRPQLSNMSIRIDSLEKEIIKAKKDGMSKDQSKGRSQ
B2: BLM_(95–294) (domain or fragment, human, UniProt P54132 95-294, looked up)
chain: AGQETQRGGSKSLLPDFLQTPKEVVCTTQNTPTVKKSRDTALKKLEFSSSPDSLSTINDWDDMDDFDTSETSKSFVTPPQSHFVRVSTAQKSKKGKRNFFKAQLYTTNTVKTDLPPPSSESEQIDLTEEQKDDSEWLSSDVICIDDGPIAEVHINEDAQESDSLKTHLEDERDNSEKKKNLEEAELHSTEKVPCIEFDDD
B3: Sgs1_(103–322) (domain or fragment, S. cerevisiae, UniProt P35187 103-322, looked up)
chain: ADVPMVDIPASTSVVSNPRTPNGSKTHNFNTFRPHMASSLVENDSSRNLGSRNNNKSVIDNSSIGKQLENDIKLEVIRLQGSLIMALKEQSKLLLQKCSIIESTSLSEDAKRLQLSRDIRPQLSNMSIRIDSLEKEIIKAKKDGMSKDQSKGRSQVSSQDDNIISSILPSPLEYNTSSRNSNLTSTTATTVTKALAITGAKQNITNNTGKNSNNDSNNDD

Molecular target: the molecule itself
Assay: SEC

Stoichiometry N, 6:
B1
B2
B3
